This is an account of results in US20180127493A1 (ESBATECH AN ALCON BIOMEDICAL RESEARCH UNIT, published 2018).

Test [1] concerns the target VEGF (as used in the VEGFR competition ELISA). Kind of test: competition ELISA, VEGF binding to hVEGFR1; ratio to reference Luc.
The target in test [2] is T1, recombinant human VEGF165 (PeproTech EC Ltd.) (human, UniProt P15692-4 27-191).
T1 construct: Amine-coupled to a CM4 chip; also called hVEGF165
The test can be described thus: SPR, BIAcore T100, hVEGF165 amine-coupled on CM4 chip, scFv as analyte. Here is the method: The Biacore-binding ability of scFvs was tested and the binding affinity was measured using the exemplary surface plasmon resonance method with BIAcore™-T100. […] For the surface plasmon resonance experiment, carboxymethylated dextran biosensor chips (CM4, GE Healthcare) were activated with N-ethyl-N′-(3-dimethylaminopropyl) carbodiimide hydrochloride and N-hydroxysuccinimide according to the supplier's instructions. […] The 4th flow cell of each chip was treated similarly except no proteins were immobilized prior to blocking, and the flow cell was used as in-line reference. […] The apparent dissociation rate constant (kd), the apparent association rate constant (kₐ) and the apparent dissociation equilibrium constant (KD) were calculated using one-to-one Langmuir binding model with BIAcore T100 evaluation Software version 1.1.

Chain of VEGF (as used in the VEGFR competition ELISA) (P15692 whole entry): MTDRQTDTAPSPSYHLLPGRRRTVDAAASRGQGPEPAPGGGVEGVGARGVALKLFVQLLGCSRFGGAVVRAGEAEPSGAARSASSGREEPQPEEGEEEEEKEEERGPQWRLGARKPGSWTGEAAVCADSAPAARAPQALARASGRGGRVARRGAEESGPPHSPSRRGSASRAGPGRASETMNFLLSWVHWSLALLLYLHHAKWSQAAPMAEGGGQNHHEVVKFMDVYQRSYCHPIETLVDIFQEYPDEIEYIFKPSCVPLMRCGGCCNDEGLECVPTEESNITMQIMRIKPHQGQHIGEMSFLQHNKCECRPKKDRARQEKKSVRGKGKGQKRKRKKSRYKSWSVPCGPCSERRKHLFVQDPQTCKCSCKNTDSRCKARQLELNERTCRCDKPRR
T1 sequence (P15692 other isoform, or with tags, fused parts or gaps limits assumed, form in doubt): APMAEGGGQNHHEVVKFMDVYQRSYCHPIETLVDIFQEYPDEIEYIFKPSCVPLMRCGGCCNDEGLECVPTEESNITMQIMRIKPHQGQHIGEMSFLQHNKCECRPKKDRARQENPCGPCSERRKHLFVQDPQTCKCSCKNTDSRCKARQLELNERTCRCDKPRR

B1: 567-min (scFv)
chain: EIVMTQSPSTLSASVGDRVIITCQADQSIYIWLSWYQQKPGKAPKLLIYKASTLESGVPSRFSGSGSGAEFTLTISSLQPDDFATYYCQNNAHYSTNGGTFGQGTKLTVLGGGGGSGGGGSGGGGSGGGGSEVQLVESGGGLVQPGGSLRLSCAASGFSLSDYYMCWVRQAPGKGLEWVSCLDYFGSTDDASWAKGRFTISRDNSKNTLYLQMNSLRAEDTAVYYCAKTDDSRGWGLNIWGQGTLVTVSS
For the molecule B1, the “Rel. activity hVEGR1 comp. ELISA (EC50Luc [nM]/EC50test [nM])” value (from here on “Rel. activity hVEGR1 comp. ELISA”) in test [1] came to 57 ratio.

B2: 511-min (scFv)
scFv: EIVMTQSPSTLSASVGDRVIITCQASQSINIWLSWYQQKPGKAPKLLIYRASTLASGVPSRFSGSGSGAEFTLTISSLQPDDFATYYCQANYAYSAGYGAAFGQGTKLTVLGGGGGSGGGGSGGGGSGGGGSEVQLVESGGGLVQPGGSLRLSCAASGFSLNTYYMNWVRQAPGKGLEWVSIIAPDDTTYYASWAKSRFTISRDNSKNTLYLQMNSLRAEDTAVYYCAKSGDTTAWGADIWGQGTLVTVSS
notes: NH2-VL-linker-VH-COOH; Min graft on FW1.4; also called 801
Take B2: in test [1], the “Rel. activity hVEGR1 comp. ELISA” value was 0.7 ratio. Also, in test [2], the Kd came out at 2.53 nM, the koff came to 0.00128 s⁻¹ and the kon turned out to be 505000 M⁻¹ s⁻¹.

B3: 534-min C-His (scFv, not shown: small tags and cut ends)
scFv: EIVMTQSPSTLSASVGDRVIITCQASQSINWLSWYQQKPGKAPKLLIYKESTLASGVPSRFSGSGSGAEFTLTISSLQPDDFATYYCQNNYDSGNNGFPFGQGTKLTVLGGGGGSGGGGSGGGGSGGGGSEVQLVESGGGLVQPGGSLRLSCAASGFSLSYYYMSWVRQAPGKGLEWVSIIGPGDYTDYASWAKGRFTISRDNSKNTLYLQMNSLRAEDTAVYYCAKGDDNSGWGEDIWGQGTLVTVSS
notes: Min graft with C-His in its name; also called 807
In the case of B3, in test [2], the Kd came out at 34.1 nM, the koff came to 0.00921 s⁻¹ and the kon was determined as 271000 M⁻¹ s⁻¹.

B4: 578-min (scFv)
scFv: EIVMTQSPSTLSASVGDRVIITCQASEIIHSWLAWYQQKPGKAPKLLIYLASTLASGVPSRFSGSGSGAEFTLTISSLQPDDFATYYCQNVYLASTNGANFGQGTKLTVLGGGGGSGGGGSGGGGSGGGGSEVQLVESGGGLVQPGGSLRLSCAASGFSLTDYYYMTWVRQAPGKGLEWVSFIDPDDDPYYATWAKGRFTISRDNSKNTLYLQMNSLRAEDTAVYYCAKGDHNSGWGLDIWGQGTLVTVSS
notes: NH2-VL-linker-VH-COOH; Min graft on FW1.4; also called 820
For the molecule B4, in test [1], the “Rel. activity hVEGR1 comp. ELISA” value was 4.8 ratio.

B5: 509-maxII (scFv)
chain: EIVMTQSPSTLSASVGDRVIITCQASQNIRIWLSWYQQKPGKAPKLLIYKASTLESGVPSRFSGSGSGTEFTLTISSLQPDDFATYYCQNNAHYSTNGGTFGQGTKLTVLGGGGGSGGGGSGGGGSGGGGSEVQLVESGGGLVQPGGSLRLSCTASGFSLSSYYMSWVRQAPGKGLEWVGILDYVGDTDYASWAKGRFTISKDASKNTVYLQMNSLRAEDTAVYYCARTDDSRGWGLNIWGQGTLVTVSS
In the case of B5, in test [1], the “Rel. activity hVEGR1 comp. ELISA” value worked out at 0.09 ratio. In addition, in test [2], the Kd amounted to 3.37 nM, the koff stood at 0.00282 s⁻¹ and the kon was 838000 M⁻¹ s⁻¹.

B6: 509-min (scFv)
scFv: EIVMTQSPSTLSASVGDRVIITCQASQNIRIWLSWYQQKPGKAPKLLIYKASTLESGVPSRFSGSGSGAEFTLTISSLQPDDFATYYCQNNAHYSTNGGTFGQGTKLTVLGGGGGSGGGGSGGGGSGGGGSEVQLVESGGGLVQPGGSLRLSCAASGFSLSSYYMCWVRQAPGKGLEWVSCLDYVGDTDYASWAKGRFTISRDNSKNTLYLQMNSLRAEDTAVYYCAKTDDSRGWGLNIWGQGTLVTVSS
notes: NH2-VL-linker-VH-COOH; Min graft on FW1.4; also called 854
With B6, the “Rel. activity hVEGR1 comp. ELISA” value in test [1] was found to be 2.9 ratio.
